Source: the DeepSol protein solubility set

Assay: soluble on expression in E. coli; label from the status in PepcDB or PDB records

Sequence | soluble on expression in E. coli
MSRPPSRPRMMCARVLLLLSVTGLVLACETGPSSGDYEQAVMQDRVQRDMQMREKESVLPPGRREAFRGLNFYEVDPAYRYTVPLRRFETPDTVMIPESTGDLRPQQRIGEVTVPLPEGPEELVVFRGEGDTPRGRLWIPFADSTNRHATYKGGRYVDLTSTDSDSVVVDFNRAYNPTCAYNPDFACPLPPPENRIAVPVAAGEKRPTFGG | soluble
MSRQNPVRSTRGNSLRAREAQQAQDAPLFQESSSNVFVVEKVLNKRLTRGGSEYYIKWQGFPESECSWEPIENLQCDRMIQEYEKEAAKRTTRKRRYSPQPSTSSSAELQPSTSDEWAGKTLKTIIGITKAPGELHFLCKFSDDSVHLIPLREANVRFPSQVIKFYETRLVLQGVSPTIPGGMS | not soluble
MSRRRQFDDEDEVQMKRRRGAPLIEDVEKKLQGVIGKVGENTGSSIECNLDKLTAFLHDDLEKYRASIIDIIAGCAIYLPNRVTVYTTLVGLLNSKNFNFGGDVVEKLISEQQDLLSKQKYQEAQNLAIFLCDLGNSGVLTAQSIGEYLESFIAAAFEENMPQVRNDYYIQTVLRCLPWIGKELTEKAPEQMENIGEAIGKYLELRNKNHVALLQVWREGSTDQKQEDYLESLSAQIEALRNADWVENHIPRHYSGFETTLQDALQHNLPSFQSPEHTSDMIYPYPLVVFRLFQDADCSAFSSKPLPGDSSIDRFLFEGEIAWIIEKNQFNRKACARELLAFAEENPSVPIGFLIFETIFGQMLRLPHAPYPAIFHCSLVLELLKLKPDDYPQILVQTVECIYRRADSMQPVCIDRMVDWFSFHLSNFQYRYTWTDWKDCLNKDAFSGSQIFVREVIEKCRRFGSYEKIIAALPQDFVKIHPCSPEVRYLIDEEDTALVQRAETFTQMFQERQPAEAFLNELKSNDENDELPYNINEFGLFVMVMLKMASKTYSHNFSALFRYQTTLKTVCDASELYQEKLLETLYSCWKTNQQMLMILTDKLLKMQVIDCSAVVGWLFDEKMWQEHDRQWLFEVLNQALEKLTRQINVVEKDIKELTEKTENKIKEEDDEESDIKMDEDETKEEKFKQDLEDLENNKEKLERMVTFQKGLFNDFLIAFIEEIKNAATSNTSEMDGSGDTPGTQTPKFMWLRGRFCHVLLAHAETLLKHSSNIADEVFSEGTDPSIIECFNQFQSLRL | not soluble
MSSEIAYSNTNTNTENENRNTGAGVDVNTNANANANATANATANATANATAELNLPTVDEQRQYKVQLLLHINSILLARVIQMNNSLQNNLQNNINNSNNNNIIRIQQLISQFLKRVHANLQCISQINQGVPSAKPLILTPPQLANQQQPPQDILSKLYLLLARVFEIW | not soluble
MSSFTHFNEQGRAKMVDITHKEDTVRVAVAQTSVTVSREIYEKMTSNAIEKGDVLAVAQVAGVMAAKKTADLIPMCHPLMLKGVDIAFAWENDGEAHKLVITATVKTKGSTGVEMEALTAASVCALTVYDMCKALDKGMVIGPTYLVEKTGGKSGHYRRKTD | soluble
MSSGVAAPQPSSCVPSRVSVLSMDFEDIYRFFQDPPPHYLSKELAVCYVLAVLRHEDSYGTELIQHLETHWPNYRLSDTVLYTALKFLEDEQIISGYWKKVEGRGRPRRMYQLAQANDDRSRDLAQLWERYLSSSAATDRQLIPVEAR | soluble
MSSILTNNGAMVALQTLKSVNMNLGQTQNAISTGKNVATAKDNSAVWAISKVMESDVKGFKAIKDSLSLGESTVAVARNAAETVTDLLTQMKGKIVAAQEDNVDRNKINADVTALKDQISAVVGAAQFNGLNLVDGTAASASVLSSLDRDNAGNVTASSITVTGQNLSTGGYTAKAVFDATNTDGVSADGQDTFGFSLDANGGTDDNGQIEFEPQGTAAYAAGDSFTIRLGDTEVNYTVTAEDIASTSQADVIAVGMKAAIEASGANVTVDYNAANSGRLVITNDGTDSLQVSGQFSNANSGGLGALAAIDVSNSAGAAAALGSIETLIDTSIDAAAAFGSVQGRIETQKTFISNLTDSLKSGIGSMVDADMEEVSARLQALQVQQQLAVQSLSIANQAPQSILSLFR | not soluble
MSSIPQNIKGNNQPDIQKSFVAVHNQPGLYVGQQARFGGKVINVINGKTDTLLEISVLPLDSYAKPDIEANYQGRLLARQSGFLDPVNYRNHFVTILGTIQGEQPGFINKVPYNFLEVNMQGIQVWHLREVVNTTYNLWDYGYGAFWPEPGWGAPYYTNAVSQVTPELVKLEHHHHHH | soluble
MSSKIFCKSWGAEYIAADVVRFRLWATGQQKVMLRLAGKDQEMQANGDGWFTLDVAGVTPGTEYNFVLSDGMVVPDPASRAQKTDVNGPSYVVDPGSYTWRNTGWKGSRWEQAVVYEMHTGTFTPEGTFRAAIAKLPYLAELGVTVIEVMPVAQFGGERGWGYDGVLLYAPHSAYGTPDDFKAFIDAAHGYGLSVVLDIVLNHFGPEGNYLPLLAPAFFHKERMTPWGNGIAYDVDAVRRYIIEAPLYWLTEYHLDGLRFDAIDQIEDSSARHVLVEIAQRIREDITDRPIHLTTEDSRNIISLHPRDQDGNAPLFTAEWNDDFHNAVHVFATGETQAYYNDFADAPEKHLARALAEGFAYQGEISPQTGEPRGVKSTGQPPVAFVDFIQNHDQVGNRAQGDRLITLAGAERTKVLLATLLLSPHIPLLFMGEEYGESRPFLFFTDFHGDLARAVREGRAKEFADHAGENVPDPNAPETFQRSKLNWKQQHSEEGKAWLAFTRELLLLRQKHIVPLLSAARESSGTVLQTAPGFIAVSWRFPGGTLSLALNISATTVLLPDLPGKTLFAWPNESTGSLSQHSLIVRLAQGESAS | not soluble
MSSLKGKRIGFGLTGSHCTYEAVFPQIEELVNEGAEVRPVVTFNVKSTNTRFGEGAEWVKKIEDLTGYEAIDSIVKAEPLGPKLPLDCMVIAPLTGNSMSKLANAMTDSPVLMAAKATIRNNRPVVLGISTNDALGLNGTNLMRLMSTKNIFFIPFGQDDPFKKPNSMVAKMDLLPQTIEKALMHQQLQPILVENYQGNDLEHHHHHH | not soluble
MSSPKISIIIPVYMAESYLHRCVDSIITQTFTDWELLLVDDGSPDHSGELCEKYASAYKSRIKAFHKPNGGVASAREFGMQQARGEYSIHVDPDDWIDSNTLEELYQQAVKEQADMVICDFMMEYPNRQIHNCQKPQLLDSSSFMHQLLQQERHGSLCNKLIRTELYHKYQLHFPEKMICWEDLYICCSILLHGCKLAYVPHALYHYDFYTNDNSMVRHTDMRGLQAQIDFCRLMQAKISPEYLPELNELKGITLITAFRNQLLNEQAIRSLFPEINDWYVTRYGHDYEKSNYYGLTLVLRGYNFKTARRRMFVAKFLVQIKNKITRML | not soluble
MSSPPPARSGFYRQEVTKTAWEVRAVYRDLQPVGSGAYGAVCSAVDGRTGAKVAIKKLYRPFQSELFAKRAYRELRLLKHMRHENVIGLLDVFTPDETLDDFTDFYLVMPFMGTDLGKLMKHEKLGEDRIQFLVYQMLKGLRYIHAAGIIHRDLKPGNLAVNEDCELKILDFGLARQADSEMTGYVVTRWYRAPEVILNWMRYTQTVDIWSVGCIMAEMITGKTLFKGSDHLDQLKEIMKVTGTPPAEFVQRLQSDEAKNYMKGLPELEKKDFASILTNASPLAVNLLEKMLVLDAEQRVTAGEALAHPYFESLHDTEDEPQVQKYDDSFDDVDRTLDEWKRVTYKEVLSFKPPRQLGARVSKETPL | soluble
MSSQLNHGTLPKISIVTPSYNQAQYLEATMRSILDQGYPDLEYIVMDGGSTDGSTEIIQKYSDRLTYWESAPDKGQADAIFRGFERATGEIFCYVNSDDLLLPGSLEMVGRWFREHPDEEWVVGGTILIDGLGIPIIRSRRGLPEADLGVKVTFKRLLLHNCGGFHQPASFWRRSAFEQAGGFDRTLRFCFDYDLFFRLAKRRPSGRIRSFLAAFRYHPASKTSTLESVFREENETLWRRYGRYLYSENQIRNFAHKQTTRDMWNNRIIKLGFYLKILNVSNAIGSLEHHHHHH | not soluble
MSSSDTFEKLYIEQHDAPSEEQVEEWLATGEVLKLEQIVLDGRGHMLREKKTVNASSNEFLSGLTQYLTKIDAIHKAVEEGDVRRVKSLIDRPLLSTARDNYGMTPIHKALLHGQTNTVRFLLGRFPSCVNATDHRIFGILVDSVSNGVFNKSPLKKNAGRTPLHYAAADPNGEHMIKVLQKSGGDAFIEDKHGHTPFYYRTHGQRLNVRSMKDNAVMNQLISGQLSRPLLQDLEEDIYDWIHTGNIGKLEELVLTGYADLLLGRNHEVDDADSIGFLEVLPQYQAKIQSIHKAVETGNLRAVKLLTDRKKLSLCRDTRGLSPLHKAIVFERTDIAKYLIRNYPQSVNAMDQKKRTPLHYAAALKDGGYLYKVMRKSGADPNIYDCNGRPAKYYLKHTGEIDLSAMRLDTRAALKQVLHNRVAPSYLESSIQQWLRDGQLAKLEQLVLSGCGDLLQSRTSTHTETQAFLDRLPDYMDKIDGIHKSIKEGNLDKVKELMKTKKLAIARDRFGCTPLHSAVVHEHTEIVRYIAGHYNSVLNAPDYNKRTAMHYAAAARDGGHYLKILGKAGADPMAVDNEGRTPDYYRRNAVIDLKLIKDRDEDFETINEEYLEDGPLIDSPATPDSGSEGSFIDSARMLDDEDESIERHRFEKAFRGKIDLPTSENGVYLARTVAPVLTKALAEVLLRRPADPIGFIAEWLSKYVVEIPRHNGSH | not soluble
MSSSQELRSNFYREKNLMETVFDALKAMGKATSIELAARLDISREEVLNELWELKKAGFVDKSAYTWRVADNNVQQEQPAQAELPEEITTATVAKISECDLTATIEQRGPQTADELATLFGTTSRKVASTLAMAISKGRLIRVNQGGKFRYCIPGDNLPAEPKAASVSPLWLSASSSACHGVLIITVITPSPTKNSATKMPENLEHHHHHH | not soluble
MSSSRNFDLEYDDYKERRNAAGMGSRASSRNGGRFKPIDKEKEKEKKEIGDYGLPKNEYKMQGYDERSSDVGADPLASVRTLRNNLRVMSLEHRDKDEPVKSHLCQSACDDLSKAEKQLVDLSHKRSDAVVRGDSRQAEQIAKDMDRVKSDAIRNAYSDLMMEDGTMKAFGVNSKWTPDKNPMPSDDWKPMTPMKPRKRAETPKGRKTESRQSNRGNNDNGDQRMTSKATTRSPERRVIPTEPSKPKTTRKNQRLSTIGHVPEAIPVVDTPLPGGSTVQDDPYKMPTYVGRCPHCQLTESGLGRAGGMEKHFAKYCKVMTSCKYCMKLTMVSQLTDHLIYRCEFLQDTMEACNDCGLAIEKEDQKRGGSHPMCRGRRPPTGAQWCPLCTIAVEDNEENWREHLLNNCYNNQRRDGPEKDPWEMKQEQEDILLGAKEKKKREMEEEERLKKEAEIRRQQQQVVVNNTGYPGKMIDADKLVVALQEIQERKKAEKKKKLKDIEKET | not soluble
MSSTAEEMAAAFEQTGGPDLTTGSGKRTKSDRVEHKHASQPGGDTRKVVQTASNGEAKRKEK | not soluble
MSSTPSLSHSPAELYRAWQDLRAERPQLRARDAAALLQVSEGELVASRVGIDAVRLRPDWAALLPALGELGPIMALTRNEHCVHERKGPYREVTVSANGQMGLVVSPDIDLRLFLGGWNAVFAIAEETARGTQRSIQVFDQQGVAVHKVFLAEASDVRAWEPLVERLRAAEQDAVLALHEPRAPAAALVDAQIDAAALREGWAALKDTHHFHALLKKHGAQRTQALRLAGGEWAERLDNGDLAKLFEAAAESGLPIMVFVGNAHCIQIHTGPVCNLKWLDDWFNVLDPEFNLHLKTTGIAELWRVRKPSTDGIVTSWEAFDADGELIVQLFGARKPGEPERDDWRELAESFKAL | not soluble
MSSVERYLSQLVKTEPQLETLKELYIGKKWHQLTEELLKLIHSGQVNRINLVELYDSFIREFESSLNPLALVRILVGIARKNYRDLNKALEFVDYATNSKAFISADEEASLFLKSETARLKLEGGNLSGVKQILEEVGVAMESTRDLDTVVHSSYHRVCAQYYKAVGPATKYYSSALLFFQYAPLDSFTVEERVHWAYDLGVASIVAETIFNFGEILEYDIMQSLKSEKLQWLLELLEAFKYGSIEKFNQIGNRARDQINQEPALSSNWQFLEQKIRLRSLMELATKKLVERVISFDDICSSCEVTKDQVEYLVMKALSLHLLQGTINEMDETVSISYVQPKTLDRNEVEGLYNRLIPWKTHVHEIALSLERSTEADLAQAQN | soluble
